# Reference: article PMC2592702 (PLoS ONE, 2008)
# T1: POM2 epitope-mimicking peptide of the competition BIAcore experiment (Mus musculus)
# T1 chain: QPHGGGW
# Legend:
# [1] = molecular target: T1, POM2 epitope-mimicking peptide of the …; assay: SPR; […] (100–[…]), 1 h at room temperature; […]; HBS-EP; details: both partners purified
# [2] = molecular target: T2, N-terminally truncated recombinant mouse PrP, residues 121–231 (rmPrP_(121-231)) (Mus musculus, UniProt P04925); assay: ELISA
# [3] = molecular target: T2, N-terminally truncated recombinant …; assay: SPR; […]; antibody 420 pM–110 nM in HBS-EP at 20 µl/min, 20 min dissociation, […]; details: both partners purified
# T2 sequence (P04925 whole entry, looked up, the tested form may be a part): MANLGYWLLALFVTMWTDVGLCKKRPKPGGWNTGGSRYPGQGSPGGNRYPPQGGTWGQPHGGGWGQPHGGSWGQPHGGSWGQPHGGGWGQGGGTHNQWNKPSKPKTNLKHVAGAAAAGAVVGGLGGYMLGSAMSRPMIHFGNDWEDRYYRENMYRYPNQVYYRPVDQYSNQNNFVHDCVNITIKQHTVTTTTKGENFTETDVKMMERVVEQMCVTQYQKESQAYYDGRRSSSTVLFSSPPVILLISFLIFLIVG
binder,measurement,setting,value
"POM2 scFv, purified and refolded (scFv, V domains shown) VH: EVKLQESGGEVVRPGTSVKVSCKASGYAFTNYLIEWVKQRPGQGLEWIGVINPGSGDTNYNEKFKGKATLTADKSSSTAYMQLNSLTSDDSAVYFCARSGVAAPYYYAMDYWGQGTSVTVSS VL: DIVMTQSHKFMSTSVGDRVSITCKASQDVGTALAWYQQKPGQSPKLLIYWASTRHTGVPDRFTGSGSGTDFTLTISNVQSEDLSDYFCQQYSSYPTFGGGTKLEIK",Kd,[1],20 nM
"POM11 monoclonal antibody (antibody, V domains shown) VH: DVMLVESGPELEKPGASVRISCKASGYSFTGYNMDWVKQNNGKSLEWIGSIDPYYGGTSYNQSFKDKATLTVDKSSGTAYMQLKSLTSDDSAVYYCARGGVGPYYYALDYWGQGTSVTVSS VL: DIVLTQSHKFMSTSVGDRVSITCKASQDVGSAVAWYQQKPGQSPKLLIYWSSTRHTGVPDRFTGSGSGTDFTLTISNVQSEDLADYFCHQYNSSPTFGRGTKLELK",binding result,[2],no binding
"POM19 monoclonal antibody (antibody, V domains shown) VH: EVKLMESGAELMKPGGSVKISCKATGYTFYSYWIEWIKRRPGHGLEWIGEILPGTGDTKYSEKFKGRATFTADPSSNTAYMQLSSLTSEDSAVYYCTRLIYYRYDDYALDYWGQGTSVTVSS VL: DIVMTQSPAVMSASPGEKVTMTCSASSSISYMHWYQQKPGTSPKRWIFDTSKLASGVPARFSGSGSGTSYSPTISSMEAEDAATYFCHQRIIYPTFGGGTKLEMK",Kd,[3],0.87 nM
